Measurements as given in a protein production outcome set (Wang et al. 2014).

Experiment: label from the status in PepcDB records
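Further: failed if final PepcDB status was selected cloned or expressed and not failed if soluble or beyond.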

Sequence | protein production
MEIKPVSPEIVSDKLTKVILVFYKTISEIIYPLAILGYCISVILIITGSCFHSRTVMKMGIVNFCVITLVLISYFFMPSFIGILKSIETILR | failed
MEIKRILVSRTDKIGDLVLSIPSFFMLKKMYPNAELVVIVRKYNVDIVKNLPYIDRIVIIDEYSKAELLEKIAYFKADVFIALYNDSYIASLARASKAKIKIGPISKLSSFFTYNKGVLQKRSLSLKNEGQYNLDLVTKLDRKRFAILEHHHHHH | failed
MEILHFSPSSSISTIIHRPRRKIMALRDSIKTQMNLITTESVSSFRFCPCGRRHFIGAAMTSMPFLPISPSHASTSTEDLKRLRPPKPDWYEEFFAWSMNSEVESYEKEVSDYKMKLFDNLVGKAEKVLEIGIGTGPNFKYYTDIPNVSVIGIDPNAKMESYARKSATEAGLKPEEFTFVHALGESIPLEDASVDAVVGTLVLCSVTDVTQTLKEIKRILRPGGIYIFIEHVAAEDGTFLRLVQTVLDPLQQVVADGCHLTRHTGESILEARFNGGADVKKTSLSRLAYISSHVYGVAYN | failed
MEILSLGEKIKARRKELNMTLKDLAGDRITPGQISLVESGKSNPSMDLLEYLAGALNTSVEYLMESEETQAEKICVYYENTAEAYMLNDELMEAEQYLEKAMYYAENYKISYRKARTLYLYGCINMNKNELGVAQQFFLSSNVLFIKLNHYEDIINTFINLGKITLNLKAYNSSCSYFEQAERVSRDNDIGNDFLIGEIYYYMSLVYFKMNNSNKTIKYCLMAKEKFAELENKKEYARTLLILSKEYSKSGDVDNAIKYSKKALKAFKENDNMFAVADIENELGKLFYEFENIEESFIHLNKAKEIRKKTKGHEFIETLCNICENYIKLKDTENSQKVLNEIKENIDGNNVFDILKYYMLKYRISILNRSLKEAENILLRALQYAENMELEKEAAEFSVIIGKYYIDNGDDVEAAKYLNSGIEKFKKIGVLKDL | failed
MEILTCIKQVPGTTSVEVDETTGVLKRDGVDSKMNPYDLYALETALRIKEDKKANLKVLSMGPPQAKKVIEESFMMGADEGALISDRRFGGADVLATSYTISQGIKKMGKVDLIICGKQTTDGDTAQVGPEVAEFLDIPHVTNVTKLIEVKDESIVVEIDMPNDLQVCEIEYPCLITVEKDIFQPRLPSFKLKLNTKDREIPVYSLDDFEDKNENNYGLNGSPTQVVRIFPPKPNTDKNIVRGNADELSFALVNKLEELKLV | not failed
MEILYIKGDATAPIGSGVKVITHICNDIGGWGKGFVLALSKKWKMPEEAYRQWYKSQEEFTLGAVQFVNVENKLYVANMIGQHGIYKDSKGLPPIRYDAVRQCLKEVALFTIAHKASVHMPRIGCGLAGGKWELMEQIIKEELITKEIAVTVYDL | not failed
MEIMKKQNSQINEINKDEIFVVVPAFNEEKMIGETLKNLKKEGYKNIVVVDDGSMDKTSEIAKKEGVIVCRHILNRGLGGALGTGIKCALLYKPKIIITFDADGQHHPKDVEKVVKPVLFEGYDMAIGSRMMDKNELKNMPLVKRIGNFGLNFITYLMGGYFVTDSQSGLRAFSYEAAKKIIGDLKSDRYEVSSEFIILAKKHGLKLKEVPIKTIYTEYSMSRGTNVITGFKILFKLIMQKIF | failed
MEIQIVTGFLGAGKTTFLNRYLPLLSGKTVVIENEFGDIGIDGDRIQEDIPVREIFAGCICCSLAMDFRKGIKEIAENFHPDRILIEPSGVGRLTDIVKACQMAREREKVSLQITKLIAIVDMASFEEYIEGFGAFYQDQIERAGLLLLSHVEAENKAQKEIIIGRLKELNPDAILYDGDWRQLENEELLKLLEEAPDYDEDARRDAAFAALPADKVFSSVSFMDLPQMRIEDLEAIMKALEKEEYGYILRAKGWIETMEKGLVHFDFTPTVSKYREEKNPAGTGGEAVVIGCGLNQAALEMLFRRKNILEHHHHHH | not failed
MEISEYFKDWMELYKKNAIDEMTYKGYEQTLKYLKTYMPNVLISEITASSYQRALNKFAETHAKASTKGFHTRVRASIQPLIEEGRLQKDFTTRAVVKGLEHHHHHH | not failed
MEITKIRGTLPSITYWNSTTPIKYTYNGTTYTGYMGNYWSDYNGTDSDGDGIGDTSYTVPNDLGTDNHPLMQPFENYNLEHHHHHH | failed
MEITPKRYWRRWRGYEKLDGSSETTSGRRKGKRVKMDPTRKKRFWRIKIVPKLRILKTASPKKFLVWLRDSYVKMMMRLANSRVVGSSGYGGSGFGSGQMKEYDEKMLVEIYKSILMVQAQGNLVHRDTPNNNLKLPSEPAVVSVVSSVVTC | failed
MEKALTKVTSFKVGSSWISKKAKEELSNITNDLTTFSSTVEEKAKWIFNKLKGKPLKSLPDLLKEYNLPPGLFPQNIICYEFDETKNKLTVFFSSPCEVTFKDGSAIRYATRVKGILLRGKLMGVEGMKTKVLVWVKVTTISVESSKSDKLWFTAGVKKSRSKDVYDTPHDAIKVIGEF | failed
MEKASSPEKWLAKVSVTLTKAKPDEIWPLFTDFFNLHKWLPTLATCHGVHGNNGEQGCIRFCSGFSIGSNGVDSAARWSKEKLVAVNPVERVMRYEIVESNTGFESYVSTVKILPRGEDGCVIEWSFTVDPVRGLSLENLVKKYEKALEIITKNMEEDALRRRESSS | failed
MEKEKKEGWAHPEAAEKYAQTADIIIPERKEILSIISKAAIDLGPMDPKIIDLGCGLGDVTAEILKLKLQADVLMIDFSDEMIRRSSERFRDNKNITVVKRDLNQGILDITEDRGFDAVVSCFSIHHVEFENRIKLYSDIRKLLKEQGLFINGDLFREDSPAIDQWEFNNRIFSLMIQLKEKLGQEWTFEELKLNRLENSQKMGDKPGTIWETFHDMKAAGFRHVDCLWKSRNLAIMAATKP | failed
MEKFKYSLLVLFGACSYGILSTIFKLGFINGFSAHQLLGGQYVFGWIGLFLLVLFFSRHKVTKKQFFSLLTVGTTMSMTGIFYAISVEELPASIAVVLLFQFTWIGVIIEAIANRTFPSRDKIISILILFAGTLFAGGVFEGLGQSFSTKGIIFGLLAAVSFSFYVFASGRVATDVPPYTKSFLMTTSATLIVCLFFPPTFLTDGALQAGLWKYAFFLGLFGVVVPVICFSIGVPKVGTGLGTILGAAELPTAIIASITLVHEVVTFMQWIGIIFILVGIFIPQLLTARKERKQNRVHSA | failed
MEKFTLSRIINIIMFLYILSIYLFTFRDGLNSISNFLALTFIAAIWSNVLLTRKKIVFNKFLFIYFLFILVCFVSVFFAINQSIAVSKIKTIILIYFLMISLVNYIDTFEKLRSFLLSFVYSGFITGVYILASSDFSQVTRYGSELGNVNSIGMIIGISSIFCFYFIIEEKKYLLYTPIMLINIFVVFLTGSRKALLFVVLTIIAILLIQQKAGIKGKIKALIGILVTLVISLYVIFNVELLYTIIGVRMEHLFSYILGKGANEGSINIRANMIDMGLDWFQERPITGYGIDNFRSLYGIEAIGGEFTYSHNNLVELLVGIGIIGTFLFYLTHFIVLKGLYKESKKNQKSALCYSFIAIIGIYIILSVGLIYYYDKHISMILAIGSIIYKIGKPSGEELTQKTLE | failed
MEKKPWEEDISIEEFKKSLNKDKITNLIIKRRWNKGKSTYHLSFNGDFEVVTKKPSTKYVTHKQLDQKLKEFKQDLMVELHDTFATKADLRDSEARINQKLEALVQVVLLHGEQINKLTQIVEKQGEQIRELQVEQKAQRQEFNARMDRLENLLVESIESTNKRFDSIEGRLDSMDSRLDSMENRLDSIEGRLDSVEGRLDSVEGRLDSMENRLDSMETRLDKIDPPK | failed
MEKKVGTDRVKRGMAQMQKGGVIMDVVNAEQAKIAEEAGAVAVMALERVPSDIRAAGGVARMADPRIVEEVMNAVSIPVMAKARIGHITEARVLEAMGVDYIDESEVLTPADDEFHLLKSDFTVPFVCGCRDIGEALRRIGEGAAMLRTKGEPGTGNIVEAVRHMRQVNGQIRQIASMTDDELMVAAKNFGAPYELVKEIKTLGKLPVVNFAAGGVATPADAALMMELGADGVFVGSGIFKSDNPAKFASAIVQATTYYTDYELIGKLSKELGSPMKGIEMSRLNPEDRMQDRSF | failed
MEKLNFGIPEWAFEFHGHKCPYMPMGYRAGSYALKIAGLEKEKDHRTYLLSEMSPEDMNGCFNDGAQAATGCTYGKGLFSLLGYGKLALILYRPGRKAIRVHVRNSFMDELSTRASDFFRYRKQGYEPSEIPAGAIDPVLEWISSLEDEEIFEYREIDGFTFEPVKKNGAKVRCDVCGEYTYEADAKLLNGKPVCKPDYYGKK | not failed
MEKNVSQVTAQEETALKARGYNEDLLPSSPKQRTMGARNFFTLWMGSIHNIPNYAAVGGFIFLGLSPLQVMLAVVLSSFIVATFMNLNGVAGSKYGIPFAMHLQSTYGSLGAKLPGFLRGCVAAIAWFGLQTFTGSLALLIILGKFWPNFLEIGGSFQFFGLRLPELMAFTLFWLLNVAIGFGGSKILNRFTAILSPLIYVVIIGLTIWAIRAGGGLTPILSYQVSGAIRSVNPLVAYLIIFNSVVAVWSAPGASVADFTKNARSTRAQVVGQTTGLVVGYGIFAFSSVVILLGGSLYFGIQEWNILNIIDRLDNVAVVVLAMSVFLLTTISTNATGNIIPAGYQLAALFPKKMTYKKGVMIASVISFLIMPWKLMENADSIFIFLNAIGAVLGPVAGVMIANYYFVQKQQIDLNALYVDKHKKEEANPFYGLNKPAYVATILALVLSLSGQFIPQVKIIADISWFVGFATGFVLYLVLKKWTWDSKKVKETAYQEGK | failed
MEKPRSIEETPSSEPMEEEEDDDLELFGGYDSFRSYNSSVGSESSSYLEESSEAENEDREAGELPTSPLHLLSPGTPRSLDGSGSEPAVCEMCGIVGTREAFFSKTKRFCSVSCSRSYSSNSKKASILARLQGKPPTKKAKVLHKAAWSAKIGAFLHSQGTGQLADGTPTGQDALVLGFDWGKFLKDHSYKAAPVSCFKHVPLYDQWEDVMKGMKVEVLNSDAVLPSRVYWIASVIQTAGYRVLLRYEGFENDASHDFWCNLGTVDVHPIGWCAINSKILVPPRTIHAKFTDWKGYLMKRLVGSRTLPVDFHIKMVESMKYPFRQGMRLEVVDKSQVSRTRMAVVDTVIGGRLRLLYEDGDSDDDFWCHMWSPLIHPVGWSRRVGHGIKMSERRSDMAHHPTFRKIYCDAVPYLFKKVRAVYTEGGWFEEGMKLEAIDPLNLGNICVATVCKVLLDGYLMICVDGGPSTDGLDWFCYHASSHAIFPATFCQKNDIELTPPKGYEAQTFNWENYLEKTKSKAAPSRLFNMDCPNHGFKVGMKLEAVDLMEPRLICVATVKRVVHRLLSIHFDGWDSEYDQWVDCESPDIYPVGWCELTGYQLQPPVAAEPATPLKAKEATKKKKKQFGKKRKRIPPTKTRPLRQGSKKPLLEDDPQGARKISSEPVPGEIIAVRVKEEHLDVASPDKASSPELPVSVENIKQETDD | failed
MEKQEEEDVKRRQRQKAATSLGFLHWEELKNHGDLSKVALNIALTTLVDDASTGFCIMNLVNLIVLRESSQGYLLTYEGKLASLASATYVKAFISLWVLEDAERHAWSFRTFSLTFPLDDPILDTFLELTGVTEAGEFVYAPTTLQSPFHALYFDPQRNSFRRVIYEGLADDEFRRRNRLGYERHHILPNHIESLISL | failed
MEKTLETVPLERKKREKEQFRKLFIGGLSFETTEESLRNYYEQWGKLTDCVVMRDPASKRSRGFGFVTFSSMAEVDAAMAARPHSIDGRVVEPKRAVAREESG | not failed
MEKVKKIVLIGASGFVGSALLNEALNRGFEVTAVVRHPEKIKIENEHLKVKKADVSSLDEVCEVCKGADAVISAFNPGWNNPDIYDETIKVYLTIIDGVKKAGVNRFLMVGGAGSLFIAPGLRLMDSGEVPENILPGVKALGEFYLNFLMKEKEIDWVFFSPAADMRPGVRTGRYRLGKDDMIVDIVGNSHISVEDYAAAMIDELEHPKHHQERFTIGYLEHHHHHH | failed
